# Assay results reported in patent US20120316071A1 (published 2012).
# T1: rHuman Erythropoietin R/Fc Chimera, CF (human, UniProt P19235 25-250)
# T1 construct: Bought from R&D Systems; also called EPO R; EPO R/Fc; not shown: Fc of the bought chimera
# T1 sequence (looked up): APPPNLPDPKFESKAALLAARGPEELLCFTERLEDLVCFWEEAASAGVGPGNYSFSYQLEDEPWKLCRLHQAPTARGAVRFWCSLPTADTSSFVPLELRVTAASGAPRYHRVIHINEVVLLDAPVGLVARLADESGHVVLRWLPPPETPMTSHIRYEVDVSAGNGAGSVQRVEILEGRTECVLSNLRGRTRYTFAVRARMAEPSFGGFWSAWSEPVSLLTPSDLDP
# Assays:
# [1] = target: T2, Recombinant Human DLL4 (R&D Systems Cat#1506-D4/CF) (human, UniProt Q9NR61 27-524); experiment: ECL (MSD) multispot binding assay, DLL4 immobilised, Fab in solution
# T2 construct: Bought protein (R&D Systems Cat#1506-D4/CF), immobilised on the MSD plate; also called delta-like protein 4; rHuman DLL4
# [2] = target: T1, rHuman Erythropoietin R/Fc Chimera, CF; experiment: ECL Multispot (MSD) assay; antigen spotted on plate, Fab in solution;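 further: fab bound 1 h at 20 °C, detected by TAG-labelled antibody electrochemiluminescence, signal relative to each well's blank, ratio of 4 or more marks a hit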
# Recombinant Human DLL4 = target: T3, Recombinant Human DLL4 (human, UniProt Q9NR61 27-524); experiment: as above
# T3 construct: Bought from R&D Systems; also called delta-like protein 4; rHuman DLL4
# [3] = target: T4, rHuman EGF R/Fc Chimera, CF (human, UniProt P00533 25-645); experiment: as above
# T4 construct: Bought from R&D Systems; also called epidermal growth factor receptor; not shown: Fc of the bought chimera
# [4] = target: T5, rHuman ErbB2/Fc Chimera, CF (human, UniProt P04626 23-652); experiment: as above
# T5 construct: Bought from R&D Systems; also called human epidermal growth factor 2 receptor; not shown: Fc of the bought chimera
# [5] = target: T6, rHuman CD44/Fc Chimera, CF (human, UniProt P16070 21-220); experiment: as above
# T6 construct: Bought from R&D Systems; not shown: Fc of the bought chimera
# [6] = target: T7, rHuman HGF R/c-MET/Fc Chimera, CF (human, UniProt P08581 25-932); experiment: as above
# T7 construct: Bought from R&D Systems; also called HGF R/Fc; hepatocyte growth factor receptor; not shown: Fc of the bought chimera
# [7] = target: T8, rHuman IGF-1 sR, (IGF-1 sR), CF (human, UniProt P08069 31-932); experiment: as above
# T8 construct: Bought from R&D Systems; also called insulin-like growth factor-1 soluble receptor
# [8] = target: T9, rHuman Notch-1/Fc Chimera, CF (human, UniProt P46531 19-526); experiment: as above
# T9 construct: Bought from R&D Systems; not shown: Fc of the bought chimera
# [9] = target: T10, Recombinant Human DLL4 (delta-like protein 4) (human, UniProt Q9NR61 27-529); experiment: ELISA, DLL4 coated on plate, Fab in solution, absorbance at 450 nm
# T10 construct: Bought recombinant human DLL4 (R&D Systems Cat#1506-D4/CF); also called rHuman DLL4; Delta-like 4
# [10] = target: T10, Recombinant Human DLL4 (delta-like …); experiment: 96-well plate ECL binding assay, DLL4 immobilised, Fab in solution
# T7 sequence (P08581 25-932, change not shown): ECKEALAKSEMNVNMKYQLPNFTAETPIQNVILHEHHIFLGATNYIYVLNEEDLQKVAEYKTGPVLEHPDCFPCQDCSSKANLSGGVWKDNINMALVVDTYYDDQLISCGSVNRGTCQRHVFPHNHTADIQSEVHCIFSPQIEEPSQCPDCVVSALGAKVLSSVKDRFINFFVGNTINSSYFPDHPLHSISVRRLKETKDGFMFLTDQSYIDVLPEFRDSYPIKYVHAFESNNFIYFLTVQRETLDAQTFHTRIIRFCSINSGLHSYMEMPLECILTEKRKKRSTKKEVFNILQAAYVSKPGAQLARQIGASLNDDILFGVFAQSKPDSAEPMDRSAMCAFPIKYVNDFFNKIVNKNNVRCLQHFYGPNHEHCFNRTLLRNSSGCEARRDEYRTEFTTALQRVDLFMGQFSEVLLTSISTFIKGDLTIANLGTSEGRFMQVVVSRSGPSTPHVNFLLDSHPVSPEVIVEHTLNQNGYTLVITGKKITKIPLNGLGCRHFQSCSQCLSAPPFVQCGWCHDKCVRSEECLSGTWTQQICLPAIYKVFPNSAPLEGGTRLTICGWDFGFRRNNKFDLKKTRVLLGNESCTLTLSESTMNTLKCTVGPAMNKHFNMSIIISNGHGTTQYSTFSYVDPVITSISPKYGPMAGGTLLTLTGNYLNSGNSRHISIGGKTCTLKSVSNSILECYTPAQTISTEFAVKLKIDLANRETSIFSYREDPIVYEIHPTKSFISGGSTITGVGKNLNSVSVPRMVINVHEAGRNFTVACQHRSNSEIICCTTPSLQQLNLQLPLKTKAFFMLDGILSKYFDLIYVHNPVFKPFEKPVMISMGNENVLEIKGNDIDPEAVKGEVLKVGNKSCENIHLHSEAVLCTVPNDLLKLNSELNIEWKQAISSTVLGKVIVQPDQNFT
binder,measurement,setting,value
"Fab VH1-46_IGHD6-6*01_IGHJ1*01 S102A/S103P/S104F/H111F (APFF) & L6_IGKJ1*01 N93S (Fab, V domains shown, Fab with CH1 plus His6/Flag tags and kappa CL from the expression plasmids; also called APFF & N93S) VH: QVQLVQSGAEVKKPGASVKVSCKASGYTFTSYYMHWVRQAPGQGLEWMGIINPSGGSTSYAQKFQGRVTMTRDTSTSTVYMELSSLRSEDTAVYYCAREEYAPFSAEYFQFWGQGTLVTVSS VL: EIVLTQSPATLSLSPGERATLSCRASQSVSSYLAWYQQKPGQAPRLLIYDASNRATGIPARFSGSGSGTDFTLTISSLEPEDFAVYYCQQRSSWPPWTFGQGTKVEIKR",ECL signal,[1],6440
"Fab VH1-46_IGHD6-6*01_IGHJ1*01 S102A/S103P/S104F/H111F (APFF) & L6_IGKJ1*01 N93Y (Fab, V domains shown, Fab with CH1 plus His6/Flag tags and kappa CL from the expression plasmids; also called APFF & N93Y) VH: QVQLVQSGAEVKKPGASVKVSCKASGYTFTSYYMHWVRQAPGQGLEWMGIINPSGGSTSYAQKFQGRVTMTRDTSTSTVYMELSSLRSEDTAVYYCAREEYAPFSAEYFQFWGQGTLVTVSS VL: EIVLTQSPATLSLSPGERATLSCRASQSVSSYLAWYQQKPGQAPRLLIYDASNRATGIPARFSGSGSGTDFTLTISSLEPEDFAVYYCQQRSYWPPWTFGQGTKVEIKR",ECL signal,[1],1380
"Fab VH1-46_IGHD6-6*01_IGHJ1*01 S102A/S103P/S104F (APF) & L6_IGKJ1*01 R91Q (Fab, V domains shown, Fab with CH1 plus His6/Flag tags and kappa CL from the expression plasmids; also called APF & R91Q) VH: QVQLVQSGAEVKKPGASVKVSCKASGYTFTSYYMHWVRQAPGQGLEWMGIINPSGGSTSYAQKFQGRVTMTRDTSTSTVYMELSSLRSEDTAVYYCAREEYAPFSAEYFQHWGQGTLVTVSS VL: EIVLTQSPATLSLSPGERATLSCRASQSVSSYLAWYQQKPGQAPRLLIYDASNRATGIPARFSGSGSGTDFTLTISSLEPEDFAVYYCQQQSNWPPWTFGQGTKVEIKR",ECL signal,[1],817
same,Signal/Blank,[1],3.1
"Fab VH1-46_IGHD6-6*01_IGHJ1*01 S102A/S103P/S104F/H111F (APFF) & L6_IGKJ1*01 N93H (Fab, V domains shown, Fab with CH1 plus His6/Flag tags and kappa CL from the expression plasmids; also called APFF & N93H) VH: QVQLVQSGAEVKKPGASVKVSCKASGYTFTSYYMHWVRQAPGQGLEWMGIINPSGGSTSYAQKFQGRVTMTRDTSTSTVYMELSSLRSEDTAVYYCAREEYAPFSAEYFQFWGQGTLVTVSS VL: EIVLTQSPATLSLSPGERATLSCRASQSVSSYLAWYQQKPGQAPRLLIYDASNRATGIPARFSGSGSGTDFTLTISSLEPEDFAVYYCQQRSHWPPWTFGQGTKVEIKR",ECL signal,[1],14700
"Fab VH1-46_IGHD6-6*01_IGHJ1*01 S102A/S103P/S104F/H111F (APFF) & L6_IGKJ1*01 S28T (Fab, V domains shown, Fab made in E. coli; the variable domains were cloned into Plasmid A (CH1, His and Flag tags) and Plasmid C (kappa CL); also called APFF / S28T) VH: QVQLVQSGAEVKKPGASVKVSCKASGYTFTSYYMHWVRQAPGQGLEWMGIINPSGGSTSYAQKFQGRVTMTRDTSTSTVYMELSSLRSEDTAVYYCAREEYAPFSAEYFQFWGQGTLVTVSS VL: EIVLTQSPATLSLSPGERATLSCRASQTVSSYLAWYQQKPGQAPRLLIYDASNRATGIPARFSGSGSGTDFTLTISSLEPEDFAVYYCQQRSNWPPWTFGQGTKVEIKR",ECL signal,[2],380
same,ECL signal,Recombinant Human DLL4,159000
same,ECL signal,[3],321
same,ECL signal,[4],271
same,ECL signal,[5],368
same,ECL signal,[6],371
same,ECL signal,[7],355
same,ECL signal,[8],249
"Fab VH1-46_IGHD6-6*01_IGHJ1*01 S102A/S103P/S104F/H111F & L6_IGKJ1*01 S28N/S30D/S31H N53E (Fab, V domains shown, Fab with CH1 (plasmid A, His6 and Flag tags) and kappa CL (plasmid C); also called H:APFF & L:NDH N53E) VH: QVQLVQSGAEVKKPGASVKVSCKASGYTFTSYYMHWVRQAPGQGLEWMGIINPSGGSTSYAQKFQGRVTMTRDTSTSTVYMELSSLRSEDTAVYYCAREEYAPFSAEYFQFWGQGTLVTVSS VL: EIVLTQSPATLSLSPGERATLSCRASQNVDHYLAWYQQKPGQAPRLLIYDASERATGIPARFSGSGSGTDFTLTISSLEPEDFAVYYCQQRSNWPPWTFGQGTKVEIKR",ELISA (Avgerage signal-noise),[9],0.204
same,ECL signal,[10],17600
